Results: patent US20250361282A1 (Bayer, published 2025)
Where “and” joins values, the source holds several entries; their conditions need not be identical. Equal values may be shown once. Values belong to the binder of their own block, whether it stands above or below them.

Experiments:
human NPRA [1] = target: T1, human NPRA (human, UniProt P16066 33-1061); assay: cell-based or functional assay
T1 sequence (looked up): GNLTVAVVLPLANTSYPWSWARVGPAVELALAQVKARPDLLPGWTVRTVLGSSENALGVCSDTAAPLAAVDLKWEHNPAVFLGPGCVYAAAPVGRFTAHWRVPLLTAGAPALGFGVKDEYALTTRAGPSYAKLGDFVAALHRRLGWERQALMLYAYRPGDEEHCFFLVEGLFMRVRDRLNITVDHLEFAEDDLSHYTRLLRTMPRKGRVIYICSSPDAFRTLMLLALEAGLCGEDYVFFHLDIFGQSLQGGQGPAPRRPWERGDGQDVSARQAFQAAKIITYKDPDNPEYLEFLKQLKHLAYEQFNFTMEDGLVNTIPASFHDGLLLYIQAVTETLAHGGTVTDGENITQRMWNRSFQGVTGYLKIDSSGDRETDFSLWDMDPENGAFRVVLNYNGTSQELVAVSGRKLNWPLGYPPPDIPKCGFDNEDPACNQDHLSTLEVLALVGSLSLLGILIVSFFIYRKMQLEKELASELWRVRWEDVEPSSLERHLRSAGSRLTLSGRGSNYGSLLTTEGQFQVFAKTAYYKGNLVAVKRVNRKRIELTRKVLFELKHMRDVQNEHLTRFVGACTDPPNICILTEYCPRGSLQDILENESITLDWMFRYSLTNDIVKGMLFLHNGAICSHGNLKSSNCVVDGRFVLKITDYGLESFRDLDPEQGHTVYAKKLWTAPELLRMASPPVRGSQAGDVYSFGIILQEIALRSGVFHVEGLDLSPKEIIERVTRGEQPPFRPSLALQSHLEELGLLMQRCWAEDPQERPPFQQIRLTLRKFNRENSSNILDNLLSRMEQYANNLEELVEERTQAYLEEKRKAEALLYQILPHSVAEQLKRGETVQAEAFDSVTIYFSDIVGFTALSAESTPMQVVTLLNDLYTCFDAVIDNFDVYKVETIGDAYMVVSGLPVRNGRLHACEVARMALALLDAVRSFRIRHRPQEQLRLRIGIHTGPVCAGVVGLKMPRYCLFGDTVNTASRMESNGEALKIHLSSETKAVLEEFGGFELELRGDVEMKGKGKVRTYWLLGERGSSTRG

human NPRA [2] = target: T2, human NPRA (human, UniProt P16066 33-1061); assay: cell-based or functional assay; remark: listed apart in the source
T2 sequence (looked up): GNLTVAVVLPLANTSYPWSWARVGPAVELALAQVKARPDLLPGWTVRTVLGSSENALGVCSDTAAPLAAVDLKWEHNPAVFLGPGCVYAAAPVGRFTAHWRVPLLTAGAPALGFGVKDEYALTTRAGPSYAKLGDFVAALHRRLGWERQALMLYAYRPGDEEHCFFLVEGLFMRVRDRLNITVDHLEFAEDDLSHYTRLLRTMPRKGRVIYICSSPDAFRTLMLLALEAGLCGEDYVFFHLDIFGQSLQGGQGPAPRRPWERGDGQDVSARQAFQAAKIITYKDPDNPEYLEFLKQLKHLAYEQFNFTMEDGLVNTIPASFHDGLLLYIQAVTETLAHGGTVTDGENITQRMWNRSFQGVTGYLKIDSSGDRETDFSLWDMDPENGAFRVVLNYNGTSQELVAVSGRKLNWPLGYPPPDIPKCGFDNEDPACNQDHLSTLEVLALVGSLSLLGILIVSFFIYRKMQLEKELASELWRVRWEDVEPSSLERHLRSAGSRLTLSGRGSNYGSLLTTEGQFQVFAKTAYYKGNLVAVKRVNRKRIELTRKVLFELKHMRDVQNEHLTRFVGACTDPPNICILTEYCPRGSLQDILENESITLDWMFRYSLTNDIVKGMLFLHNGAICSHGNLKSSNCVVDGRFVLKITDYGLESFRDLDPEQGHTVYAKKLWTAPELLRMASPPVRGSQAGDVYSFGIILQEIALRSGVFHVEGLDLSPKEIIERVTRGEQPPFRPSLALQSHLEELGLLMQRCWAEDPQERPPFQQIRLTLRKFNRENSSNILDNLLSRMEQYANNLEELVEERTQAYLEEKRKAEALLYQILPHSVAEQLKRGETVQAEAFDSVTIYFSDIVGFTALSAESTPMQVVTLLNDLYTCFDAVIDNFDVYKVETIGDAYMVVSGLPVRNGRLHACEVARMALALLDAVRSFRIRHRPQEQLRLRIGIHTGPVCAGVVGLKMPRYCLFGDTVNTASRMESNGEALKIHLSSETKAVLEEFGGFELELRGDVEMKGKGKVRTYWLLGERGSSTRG

average rel logEC50 (vs TPP-5661) (human NPRA [1]): -0.8
rel. logEC50* pcs (vs TPP-5661, hNPRA-HEK293) (human NPRA [1]): -0.7 and -0.8
B1: TPP-13054 (antibody, human IgG1, lambda)
heavy: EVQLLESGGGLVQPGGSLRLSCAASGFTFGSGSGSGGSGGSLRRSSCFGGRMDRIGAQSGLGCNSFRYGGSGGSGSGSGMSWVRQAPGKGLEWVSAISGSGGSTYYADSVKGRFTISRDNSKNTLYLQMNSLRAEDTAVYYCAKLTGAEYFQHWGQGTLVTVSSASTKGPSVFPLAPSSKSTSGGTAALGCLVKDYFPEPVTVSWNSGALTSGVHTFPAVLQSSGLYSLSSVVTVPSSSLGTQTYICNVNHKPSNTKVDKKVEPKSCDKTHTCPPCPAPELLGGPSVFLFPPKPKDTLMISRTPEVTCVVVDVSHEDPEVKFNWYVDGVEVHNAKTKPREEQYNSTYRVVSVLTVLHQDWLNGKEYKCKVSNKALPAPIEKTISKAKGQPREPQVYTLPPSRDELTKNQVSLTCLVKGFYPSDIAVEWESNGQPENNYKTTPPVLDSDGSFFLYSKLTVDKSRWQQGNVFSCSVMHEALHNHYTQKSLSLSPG
light: QSVLTQPPSVSGAPGQRVTISCTGSSSNIGAGYDVHWYQQLPGTAPKLLIYGNSNRPSGVPDRFSGSKSGTSASLAITGLQAEDEADYYCQSYDSSLSGVVFGGGTKLTVLGQPKAAPSVTLFPPSSEELQANKATLVCLISDFYPGAVTVAWKADSSPVKAGVETTTPSKQSNNKYAASSYLSLTPEQWKSHRSYSCQVTHEGSTVEKTVAPTECS

average rel logEC50 (vs TPP-5661) (human NPRA [1]): -0.7
rel. logEC50* pcs (vs TPP-5661, hNPRA-HEK293) (human NPRA [1]): -0.6 and -0.8
B5: TPP-13061 (antibody, human IgG1, lambda)
heavy: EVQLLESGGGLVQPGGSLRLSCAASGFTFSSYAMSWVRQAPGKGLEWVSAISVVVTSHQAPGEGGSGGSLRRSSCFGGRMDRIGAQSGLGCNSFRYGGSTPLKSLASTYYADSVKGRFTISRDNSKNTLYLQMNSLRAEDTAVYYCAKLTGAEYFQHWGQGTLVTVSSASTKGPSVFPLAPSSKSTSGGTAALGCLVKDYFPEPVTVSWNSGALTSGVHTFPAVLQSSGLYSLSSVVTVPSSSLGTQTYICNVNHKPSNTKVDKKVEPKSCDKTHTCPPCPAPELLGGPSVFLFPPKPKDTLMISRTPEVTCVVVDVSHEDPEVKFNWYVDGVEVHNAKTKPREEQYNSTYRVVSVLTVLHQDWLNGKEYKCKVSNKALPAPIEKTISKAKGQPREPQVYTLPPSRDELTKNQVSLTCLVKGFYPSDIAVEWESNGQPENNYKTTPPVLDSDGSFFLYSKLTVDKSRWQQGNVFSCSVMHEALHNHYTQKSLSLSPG
light: QSVLTQPPSVSGAPGQRVTISCTGSSSNIGAGYDVHWYQQLPGTAPKLLIYGNSNRPSGVPDRFSGSKSGTSASLAITGLQAEDEADYYCQSYDSSLSGVVFGGGTKLTVLGQPKAAPSVTLFPPSSEELQANKATLVCLISDFYPGAVTVAWKADSSPVKAGVETTTPSKQSNNKYAASSYLSLTPEQWKSHRSYSCQVTHEGSTVEKTVAPTECS

average rel logEC50 (human NPRA [2]): -0.3 delta logEC50 vs TPP-5661
rel. logEC50 pcs 9 (human NPRA [2]): -0.3 delta logEC50 vs TPP-5661
B7: TPP-13230 (antibody)
heavy: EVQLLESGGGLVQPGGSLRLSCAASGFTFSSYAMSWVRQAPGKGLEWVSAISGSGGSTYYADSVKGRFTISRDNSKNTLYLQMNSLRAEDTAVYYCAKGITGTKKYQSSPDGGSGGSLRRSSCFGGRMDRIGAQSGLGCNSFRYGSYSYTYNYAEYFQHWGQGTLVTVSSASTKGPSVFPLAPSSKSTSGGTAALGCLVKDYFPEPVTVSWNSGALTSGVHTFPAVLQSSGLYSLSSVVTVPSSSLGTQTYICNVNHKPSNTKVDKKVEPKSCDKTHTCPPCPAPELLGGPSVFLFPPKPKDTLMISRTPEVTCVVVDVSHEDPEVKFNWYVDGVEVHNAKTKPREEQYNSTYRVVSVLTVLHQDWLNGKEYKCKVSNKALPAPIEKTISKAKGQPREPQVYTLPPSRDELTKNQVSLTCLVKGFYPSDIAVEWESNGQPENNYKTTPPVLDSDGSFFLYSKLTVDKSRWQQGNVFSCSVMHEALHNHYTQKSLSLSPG
light: QSVLTQPPSVSGAPGQRVTISCTGSSSNIGAGYDVHWYQQLPGTAPKLLIYGNSNRPSGVPDRFSGSKSGTSASLAITGLQAEDEADYYCQSYDSSLSGVVFGGGTKLTVLGQPKAAPSVTLFPPSSEELQANKATLVCLISDFYPGAVTVAWKADSSPVKAGVETTTPSKQSNNKYAASSYLSLTPEQWKSHRSYSCQVTHEGSTVEKTVAPTECS

More lines, now with the values behind:

B2: TPP-10290 (antibody)
heavy: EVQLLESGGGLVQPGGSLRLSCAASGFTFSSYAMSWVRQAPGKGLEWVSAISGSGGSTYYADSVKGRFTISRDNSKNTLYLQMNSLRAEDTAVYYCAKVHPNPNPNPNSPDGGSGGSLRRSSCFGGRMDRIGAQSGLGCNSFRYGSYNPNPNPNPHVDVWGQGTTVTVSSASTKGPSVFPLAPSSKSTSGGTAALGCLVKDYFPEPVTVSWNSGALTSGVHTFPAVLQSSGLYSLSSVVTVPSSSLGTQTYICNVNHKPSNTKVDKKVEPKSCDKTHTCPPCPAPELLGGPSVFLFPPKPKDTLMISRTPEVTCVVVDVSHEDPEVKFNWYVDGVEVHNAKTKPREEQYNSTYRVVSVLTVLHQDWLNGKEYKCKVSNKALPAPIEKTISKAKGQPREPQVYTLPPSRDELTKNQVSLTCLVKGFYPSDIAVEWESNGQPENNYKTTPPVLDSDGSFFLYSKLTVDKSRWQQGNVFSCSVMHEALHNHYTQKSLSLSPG
light: QSVLTQPPSVSGAPGQRVTISCTGSSSNIGAGYDVHWYQQLPGTAPKLLIYGNSNRPSGVPDRFSGSKSGTSASLAITGLQAEDEADYYCQSYDSSLSGVVFGGGTKLTVLGQPKAAPSVTLFPPSSEELQANKATLVCLISDFYPGAVTVAWKADSSPVKAGVETTTPSKQSNNKYAASSYLSLTPEQWKSHRSYSCQVTHEGSTVEKTVAPTECS
activity rcs (human NPRA [2]): 84%
average rel logEC50 (human NPRA [2]): -0.5 delta logEC50 vs TPP-5661
rel. logEC50 pcs 2 (human NPRA [2]): -0.8 delta logEC50 vs TPP-5661
rel. logEC50 pcs 3 (human NPRA [2]): -0.1 delta logEC50 vs TPP-5661

B3: TPP-10845 (antibody, human IgG1, lambda)
heavy: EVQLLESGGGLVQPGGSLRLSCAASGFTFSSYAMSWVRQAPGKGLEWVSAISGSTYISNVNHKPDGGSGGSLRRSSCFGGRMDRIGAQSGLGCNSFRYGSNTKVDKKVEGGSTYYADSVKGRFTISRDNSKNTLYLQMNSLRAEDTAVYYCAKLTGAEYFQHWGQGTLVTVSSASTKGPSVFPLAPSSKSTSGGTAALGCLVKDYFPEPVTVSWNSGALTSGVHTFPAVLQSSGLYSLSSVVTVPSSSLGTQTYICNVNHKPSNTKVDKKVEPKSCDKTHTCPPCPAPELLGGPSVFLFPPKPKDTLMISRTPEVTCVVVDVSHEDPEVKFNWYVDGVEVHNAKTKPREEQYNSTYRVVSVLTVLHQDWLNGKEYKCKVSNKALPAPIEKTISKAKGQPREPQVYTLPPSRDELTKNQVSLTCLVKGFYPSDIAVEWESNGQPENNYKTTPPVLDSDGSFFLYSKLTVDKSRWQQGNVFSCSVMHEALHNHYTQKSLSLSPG
light: QSVLTQPPSVSGAPGQRVTISCTGSSSNIGAGYDVHWYQQLPGTAPKLLIYGNSNRPSGVPDRFSGSKSGTSASLAITGLQAEDEADYYCQSYDSSLSGVVFGGGTKLTVLGQPKAAPSVTLFPPSSEELQANKATLVCLISDFYPGAVTVAWKADSSPVKAGVETTTPSKQSNNKYAASSYLSLTPEQWKSHRSYSCQVTHEGSTVEKTVAPTECS
activity rcs (cGMP, hNPRA-CHO k1) (human NPRA [1]): 67%
average rel logEC50 (vs TPP-5661) (human NPRA [1]): -0.6
rel. logEC50 pcs 5 (vs TPP-5661, hNPRA-CHO k1) (human NPRA [1]): -0.4
rel. logEC50 pcs 6 (vs TPP-5661, hNPRA-CHO k1) (human NPRA [1]): -0.8

B4: TPP-10765 (antibody, human IgG1, lambda)
heavy: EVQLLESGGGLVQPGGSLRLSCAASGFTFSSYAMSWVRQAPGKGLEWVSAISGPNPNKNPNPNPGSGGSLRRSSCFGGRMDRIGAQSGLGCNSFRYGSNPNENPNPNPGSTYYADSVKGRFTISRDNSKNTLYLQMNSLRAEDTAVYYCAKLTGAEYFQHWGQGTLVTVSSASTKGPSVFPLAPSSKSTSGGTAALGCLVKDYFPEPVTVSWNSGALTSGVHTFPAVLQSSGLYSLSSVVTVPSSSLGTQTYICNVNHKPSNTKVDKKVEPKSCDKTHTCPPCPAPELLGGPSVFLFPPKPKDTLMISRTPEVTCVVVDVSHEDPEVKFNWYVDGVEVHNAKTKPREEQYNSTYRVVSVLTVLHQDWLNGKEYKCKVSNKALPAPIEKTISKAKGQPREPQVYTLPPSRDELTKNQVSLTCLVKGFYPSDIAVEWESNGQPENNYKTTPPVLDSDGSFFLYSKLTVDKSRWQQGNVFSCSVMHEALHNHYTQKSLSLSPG
light: QSVLTQPPSVSGAPGQRVTISCTGSSSNIGAGYDVHWYQQLPGTAPKLLIYGNSNRPSGVPDRFSGSKSGTSASLAITGLQAEDEADYYCQSYDSSLSGVVFGGGTKLTVLGQPKAAPSVTLFPPSSEELQANKATLVCLISDFYPGAVTVAWKADSSPVKAGVETTTPSKQSNNKYAASSYLSLTPEQWKSHRSYSCQVTHEGSTVEKTVAPTECS
activity rcs (cGMP, hNPRA-CHO k1) (human NPRA [1]): 72%
average rel logEC50 (vs TPP-5661) (human NPRA [1]): -0.4
rel. activity rcs (delta logEC50 vs TPP-5661, hNPRA-CHO k1) (human NPRA [1]): -0.9
rel. logEC50 pcs 5 (vs TPP-5661, hNPRA-CHO k1) (human NPRA [1]): -0.9
rel. logEC50 pcs 6 (vs TPP-5661, hNPRA-CHO k1) (human NPRA [1]): -0.4
rel. logEC50 pcs 7 (vs TPP-5661, hNPRA-CHO k1) (human NPRA [1]): 0.2

B6: TPP-10847 (antibody, human IgG1, lambda)
heavy: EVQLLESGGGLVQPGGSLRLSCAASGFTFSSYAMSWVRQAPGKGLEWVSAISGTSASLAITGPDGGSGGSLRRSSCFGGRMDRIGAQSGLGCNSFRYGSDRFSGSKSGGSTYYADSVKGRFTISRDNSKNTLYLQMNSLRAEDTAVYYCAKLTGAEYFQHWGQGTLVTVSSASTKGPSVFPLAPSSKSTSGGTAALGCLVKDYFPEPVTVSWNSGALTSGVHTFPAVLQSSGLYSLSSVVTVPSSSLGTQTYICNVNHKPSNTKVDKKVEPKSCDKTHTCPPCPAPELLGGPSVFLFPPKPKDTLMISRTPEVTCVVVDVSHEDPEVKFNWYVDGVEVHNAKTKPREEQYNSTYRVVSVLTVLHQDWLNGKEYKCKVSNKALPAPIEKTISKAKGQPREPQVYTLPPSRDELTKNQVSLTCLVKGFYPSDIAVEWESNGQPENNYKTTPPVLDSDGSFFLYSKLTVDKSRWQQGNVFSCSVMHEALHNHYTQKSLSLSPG
light: QSVLTQPPSVSGAPGQRVTISCTGSSSNIGAGYDVHWYQQLPGTAPKLLIYGNSNRPSGVPDRFSGSKSGTSASLAITGLQAEDEADYYCQSYDSSLSGVVFGGGTKLTVLGQPKAAPSVTLFPPSSEELQANKATLVCLISDFYPGAVTVAWKADSSPVKAGVETTTPSKQSNNKYAASSYLSLTPEQWKSHRSYSCQVTHEGSTVEKTVAPTECS
average rel logEC50 (vs TPP-5661) (human NPRA [1]): -0.5
rel. logEC50 pcs 5 (vs TPP-5661, hNPRA-CHO k1) (human NPRA [1]): 0
rel. logEC50 pcs 6 (vs TPP-5661, hNPRA-CHO k1) (human NPRA [1]): -0.9
